The values that follow come from publication doi:10.1101/2024.01.22.576655.

pKd: −log10 of the molar value.

Test [1] deals with β-gal RNCs purified in low-salt buffer without the second sucrose cushion. Kind of test: affinity purification with mass spectrometry.
Test [2] has as its target RNC_(1-180) (Escherichia coli BL21(DE3)). Kind of test: co-sedimentation.
In test [3] the target is RNC_(1-646) (Escherichia coli BL21(DE3)). Kind of test: co-sedimentation.
The next test deals with longer NCs. Kind of test: co-sedimentation.
Test [4] deals with BADAN-labelled TF_(R14C) (Escherichia coli) (UniProt P0A850). Kind of test: other fluorescence titration.

Sequence of DnaJ (endogenous) (P08622 whole entry): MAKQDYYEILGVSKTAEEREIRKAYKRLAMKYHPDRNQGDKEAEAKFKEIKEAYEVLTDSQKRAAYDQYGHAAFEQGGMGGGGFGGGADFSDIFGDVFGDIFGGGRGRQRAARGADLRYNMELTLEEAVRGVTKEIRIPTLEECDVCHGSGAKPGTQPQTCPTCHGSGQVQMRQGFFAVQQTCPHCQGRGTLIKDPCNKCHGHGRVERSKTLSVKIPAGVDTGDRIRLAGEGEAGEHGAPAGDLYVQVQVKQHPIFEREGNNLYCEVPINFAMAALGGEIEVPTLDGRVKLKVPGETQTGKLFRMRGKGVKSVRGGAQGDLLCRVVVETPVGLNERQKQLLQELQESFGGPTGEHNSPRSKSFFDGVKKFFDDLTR

For “DnaJ (endogenous) (from UniProt P08622 1-376) (natural protein)”, the occupancy in test [1] was under 10%.
The same measure, in the same setting: in the case of “DnaK (endogenous) (from UniProt P0A6Y8 1-638) (natural protein)” it was under 10%.
The stoichiometry N is a count of units in the complex or per binding partner. On to “DnaK, recombinant (from UniProt P0A6Y8 1-638) (natural protein)”, for which the stoichiometry N amounted to 1 DnaK per NC in test [2] and 2 DnaK per NC in test [3]. In the test with longer NCs, this substance registered a stoichiometry N (molecules of DnaK per NC) of 2 to 3.
A word on the pKd: it is −log10 of the Kd, conventionally taken in molar units. The low end stands for a high Kd, the high end for a low Kd. In test [4], RNC_(1-646) (complex) showed a negative-log Kd (pKd) of 7.68.
Regarding “Trigger factor, wild type, recombinant (from UniProt P0A850 1-432) (natural protein)”, in test [3], the stoichiometry N was 1 TF per RNC.
